Experiments:
[1] = molecular target: N-terminal transactivation domain (TAD) of the tumor suppressor protein p53, labeled with Alexa 488 and Alexa 594, biotinylated; assay: FRET or BRET; single-molecule three-color FRET, CW donor excitation; biotinylated TAD immobilized on PEG-coated glass via NeutrAvidin, 100 nM NCBD in solution; 10 mM Tris pH 7, 10 mM NaCl, 23 °C; maximum likelihood analysis of photon trajectories, 8-state model with acceptor blinking
[2] = molecular target: N-terminal transactivation domain (TAD) of the tumor suppressor protein p53, labeled with Alexa 488 and Alexa 594, biotinylated; assay: FRET or BRET; single-molecule three-color FRET, CW donor excitation; biotinylated TAD immobilized on PEG-coated glass via NeutrAvidin, 25 nM NCBD in solution; 10 mM Tris pH 7, 0 mM NaCl, 23 °C; maximum likelihood analysis of photon trajectories, 8-state model with acceptor blinking
[3] = molecular target: N-terminal transactivation domain (TAD) of the tumor suppressor protein p53, labeled with Alexa 488 and Alexa 594, biotinylated; assay: FRET or BRET; single-molecule three-color FRET, CW donor excitation; biotinylated TAD immobilized on PEG-coated glass via NeutrAvidin, 200 nM NCBD in solution; 10 mM Tris pH 7, 30 mM NaCl, 23 °C; maximum likelihood analysis of photon trajectories, 8-state model with acceptor blinking

nuclear coactivator binding domain (NCBD) of the CREB binding protein (CBP), S2066C, labeled with CF680R (domain or fragment)
Kd [1]: 520 nM
kon [1]: 9.1e+08 M⁻¹ s⁻¹
Kd [2]: 123 nM
kon [2]: 2.04e+09 M⁻¹ s⁻¹
Kd [3]: 2480 nM
kon [3]: 5.2e+08 M⁻¹ s⁻¹

Source: PMC7335206
